This is an account of results in the DeepSol protein solubility set.

The data set can be described thus: soluble on expression in E. coli; label from the status in PepcDB or PDB records.
“MAHHHHHHMSAPKEGNRGESKEKFWLYAFRDHLANLRAFSNCIETADVNGVGDYQLLVADGSKRIKVYAGTSLQRELPLFGVPSAITSFFMDDADAFGKPVVAVATGPYIFMYRSNKPLYRFMVPPVPLNPQESAIWQDLATEALTVEEAVKQLESLLDSGVETSSRTLELLLETPEERGEFVSRLRSVPLIQMDVVCCLTSIPLNSLDEGGRSVLVIGTEAGFLYVLKHNAAEVALKVVLPRTPVFLIAAGCFEVDYRMVVACRDGRVYSIKQGNLQNAVIQPDAQPCAIARYNNLIAVATTANTLAYYNLKGKKQQSVFLPCSISGLSTINDTVTGEARGLVVALSNGEIRVYVGTQLHHVSLAYGTVTAMKFGRYGRSDGALVLVLQNGSLVVELLHRGVNLSCSKTVETGPPPQQDIPIPIPHLSSVFATQSSRERKHGVEMYQLFQYDLSQLRLTTAKAYLDMIANGSVPSELGNVTQENEGVAEPSLRLNAVVQGLGPVFKVKVQLQNVGEAPLHAVRVVFCLSEDNVYCMPQQIFLIPTLLPSVPLSCAAFVTTSEGEAKGNAILVVATGPKSRTPLARTLVDLPEVEAMAEV”: the “soluble on expression in E. coli” value was “not soluble”. The same measure for “MGHHHHHHSHMTTNSLLIIDFEFTMPDGKYSPQNFFPEIIEAGIVKSIDDEVVETFSSYVRPKKFPKLTKRCKSFLKITQKQVDEGMRFEDFIRKLNELDPEKNSTIITWGNMDMKVLKQNCMFNHIPFPFKGEMRDLSLEYKNFFGDRTLTGLWKAAEEYGDSGTGTHHKALDDALTAYKLFKLVEQDKQYLEKPKPPTIGERIDLTELLKRAT”: “soluble”. The same measure for “MSLAGILGFPVAPFNTQGTLEEEALFQNIEFLLNEGLEAIFIACGSGEFQSLSQKEYEQMVEVAVSAAGGKVPVYTGVGGNLSTALDWAQLSEKKGADGYLILPPYLVHGEQEGLYQYAKTIIESTDLNAILYQRDNAVLSVEQIKRLTECEQLVGVKDGVGNMDLNINLVYTIGDRLGWLNGMPMAEVTMPAYLPIGFHSYSSAISNYIPHISRMFYDALKNGNDELVKELYRHVILPINDIRKQRKGYAVSLIKAGMEIMGLNVRNTARPPVGPVEKDHYQQLEAILKQPADRFPKKEGHHHHHH”: “not soluble”. Regarding “MNECGHCSVKVGEESAILTNGKVWHVNHLLCDLCNCRINDGERCVPQNGVILCSECHIKTTRPICKGCGEFIKTNLCEALNSTWHPTCFQCSVCQKPLEVDFHQLPNRMCVHSDCFWDLQLRMIVCKDLPK”, the “soluble on expression in E. coli” value was “not soluble”. To “MSKHTLIRRAVLEKLESVTGAPVTLFDGLPAFVEQEDLPAIAVWLTDAQYTGLMTDEDDWQATLHTAVFLRAQAPDTELDIWMEEKIFPALEEVSGLERLIDTMTPLGYDYQRDSEMATWGMAEITYRITYTN” belongs “soluble”; to “MADKDTYTGFCIIKEGTKISKSGWEVLSFTTQEASGEGAGNGLAKCLIDGDTETFWHAKWQGGSDPLPYDIVIDMKQNIQIAQVELLPRGRGSNNPIKVVEFAASEDNVNWTPIGRFGFTNQDAALEYYVKSIKARYIRLTIPDDGGNSTVAAIRELDVKGTIINLEHHHHHH”, “soluble”; to “MGPLPRKGNMKQKITDYLDEIYGGTFTATHLQKLVTRLESAKRLITQRRKKHWDESDVVLITYADQFHSNDLKPLPTFNQFYHQWLQSIFSHVHLLPFYPWSSDDGFSVIDYHQVASEAGEWQDIQQLGECSHLMFDFVCNHMSAKSEWFKNYLQQHPGFEDFFIAVDPQTDLSAVTRPRALPLLTPFQMRDHSTRHLWTTFSDDQIDLNYRSPEVLLAMVDVLLCYLAKGAEYVRLDAVGFMWKEPGTSCIHLEKTHLIIKLLRSIIDNVAPGTVIITETNVPHKDNIAYFGAGDDEAHMVYQFSLPPLVLHAVQKQNVEALCAWAQNLTLPSSNTTWFNFLASHDGIGLNPLRGLLPESEILELVEALQQEGALVNWKNNPDGTRSPYEINVTYMDALSRRESSDEERCARFILAHAILLSFPGVPAIYIQSILGSRNDYAGVEKLGYNRAINRKKYHSKEITRELNDEATLRHAVYHELSRLITLRRSHNEFHPDNNFTIDTINSSVMRIPRSNADGNCLTGLFNVSKNIQHVNITNLHGRDLISEVDILGNEITLRPWQVMWIK”, “not soluble”.

Regarding “MLEHGGRLREAARRYDIPLADWLDLSTGIAPWPFSLPAIPEQAWTRLPESDDGLEAAACLYYGAERVLPLAGSQAAIQALPRMRRGGRVGVLSPCYAEHAHAWRQAGHLVREIGEAEVEPYLDSLDVLLVVNPNNPTGRVFEPAELLAWHARLQRRGGWLLVDEAFMDCTPQSSLAACSNRPGLIVLRSFGKFFGLAGARLGFALGERPLLQALAEQLGPWTVNGPVRHVAQSALRDRQQQRQQRERLLAASQRLEELLRRHGWPPAGGSALFQRLVDPRCAALHDYLARRGILTRQFEQPASLRLGLPADEAAWARLDAALLGFKEPAHE”, the “soluble on expression in E. coli” value is “not soluble”. For “ATTGTQGYTVVKNDWKKAVKQLQDGLKDNSIGKITVSFNDGVVGEVAPKSANKKADRDAAAEKLYNLVNTQLDKLGDGDYVDFSVDYNLENKIITNQADAEAIVTKLNSLNEKTLIDIATKDTFGMVSKTQDSEGKNVAATKALKVKDVATFGLKSGGSEDTGYVVEMKAGAVEDKYGKVGDSTAGIAINLPSTGLEYAGKGTTIDFNKTLKVDVTGGSTPSAVAVSGFVTKDDTDLAKSGTINVRVINAKEESIDIDASSYHMSLEHHHHHH”, the “soluble on expression in E. coli” value is “soluble”. To “MLNIFCPHCGELRSEEEFHAKGQAHIPRPLDPNACSDEEWGDYMFFRDNPRGLHHELWVHAAGCRKYFNVTRHTVTYEILETYLIGEQPSVVADGEKKPAVQGEPA” belongs “not soluble”; to “DMPAEIVNLIGKMRFHTVYGQNLLQHSREVAMLAGLMAAELKLDAKQAKRAGLLHDIGLVLPETEMPHALAGMEFLKKFNMSPVVLNAIGAHHGEVEKASPIADLVDAANIVSLSRPGARGAVTAEGNVKRLESLEEIARTFPGVIKTYALQAGREIRVIVEGDNVSD”, “not soluble”; to “MGSDKIHHHHHHMQIEFYRRKYGRGCRPHLSLCIEGQHYHVDTSPADYGMNLITHAHTDHYGQRNMDNSRAVASRESAAILEACTGKVFSGVTFEVGSRIRLSDTKIKTYPTYHMHGSAAFYFQDSDILITGDVKDYSKLPKCKILVTEATYGHPSHIFEEEVEKLLKVASSNKAVFGAYPIGKAQRVAEILSKDGFGFSAEEKIARICSAVGLKPSDGPLIASPRNLPLYGGGYILTAHKFYRWPRITLSDHLDYRGILEMIDHCEPEEVLFYHGKPSKRLLEHLKNEGIVCRTLNDLPVMK”, “not soluble”. The same measure for “MRTLAIDIGGTKIALAIVEEGTIIQRYQIATPVVQDVTKFVQAILEKVTEWLPSIDYVGVSTTGYVTPEGITSINPETLNFPVPFPLAQTLEQLTNKPVSILNDAQAAAWFEFVQLKNPSLNMAFITVSTGVGGGIIIDGKLHKGNSGLAGHIGHMSVAIEGPLCGCGQRGCVESMASGNAIQKESEATFTETMSNVELFKQAAFNPKAEAIINRSVQAVATLCCNLKACLDLDIIVLGGGIGLAEGYLERLNKAIQSRPSVFHIPVTPAHGDYDACLLGAAFQFKE”: “not soluble”. For the sequence “MPYDFYTDGSALGNGQQGSRGGYGVHVPSDTSKNVSGSYPHGPQTNNRYELEAIKHATQMARDVPDSHVRIHTDSKNAKDSVTKWNDNWKSNGYKTSSGQDVKNQDLIRDIDRNVQALKHSGKTVEFEHVRGHSNRMYI”, the “soluble on expression in E. coli” value is reported as “not soluble”. For “MSVEKLIVDHMETWTSALQTRSTAGRGSSGKIDLYGIKKLRELILELAVRGKLVPQDPNDEPASDLLKRIAAEKAELVKQGKIKKQKPLPEISEEEKPFELPEGWEWVHLPDIYCSISESSRKIKSSEILPEGKYPVIEQSQEFISGYCNNECLLIKLNNPVIVFGDHTRNIKFIDFDFVVGADGVKILSPILICERFFFWQLRSFKLDVRGYARHFKVLNSCLFALPPIAEQERIVEKVSSLMSLCDQLEQQSLTSLDAHQQLVETLLGTLTDSQNTAELAENWARISEHFDTLFTTEASVDALKQTILQLAVMGKLVPQDPNDEPASELLKRIAQEKAQLVKEGKIQKPLPPISDEEKPFELPEGWEWCRIGNIVNIKSELVSPKDYLNLYQVAPDIIEKGTGRVISKRTVKESGVKGPNSRFYKGQIVYSKIRPSLSKVFLAEYNGLCSADMYPLDCYINPNYLLKYILSIPFLMQVKKAENRIKMPKLNSDSFYNIIVAIPPYNEQQAIFDKINSIEAVCNGLISYIGIYHKTQLHLADALTDAAIN”, the “soluble on expression in E. coli” value is reported as “not soluble”. To “MSLNIIRLLAESLPRISDGNENTDVWVNDMKFKMAYSFLNDDIDVIERELEQTVRSDYPLLSEAGLHLLQAGGKRIRPVFVLLSGMFGDYDINKIKYVAVTLEMIHMASLVHDDVIDDAELRRGKPTIKAKWDNRIAMYTGDYMLAGSLEMMTRINEPKAHRILSQTIVEVCLGEIEQIKDKYNMEQNLRTYLRRIKRKTALLIAVSCQLGAIASGADEKIHKALYWFGYYVGMSYQIIDDILDFTSTEEELGKPVGGDLLQGNVTLPVLYALKNPALKNQLKLINSETTQEQLEPIIEEIKKTDAIEASMAVSEMYLQKAFQKLNTLPRGRARSSLAAIAKYIGKREGHHHHHH” belongs “soluble”. As to “FPVETVQIPVNDEYAVHGWLAHGMSGHGAVLLVHSMRSNRLEMLGRARFLNNQGYHVLMIDLQAHGETPGDRITFGARESADVAAAVGYLRSTFPHDRIAAIGATLGAAAIVLANPPLKLDAMILESLHPTFAEAVANRLKLHLGNTGEYLQFLLLPYFSFLLDLPVNQLNPVDRIGNIAIPVLFIAGTLDRHTTQSEVKRLYDAALPPKELWIVEGAGHYNMHTFAGKSYEMQIADFLSTYL”, the “soluble on expression in E. coli” value is reported as “not soluble”. To “MDFDMIEEKKDSVIVRNVENFELKDIFDCGQCFRWHRQENGNYIGIAFEKVVEVQKIGEDVVIYNINEEEFKNVWSEYFDLYRDYGEIKKELSRDPLLKKSVDFGEGIRILRQDPFEILLSFIISANNRIPMIKKCINNISEKAGKKLEYKGKIYYAFPTVDKLHEFTEKDFEECTAGFRAKYLKDTVDRIYNGELNLEYIKSLNDNECHEELKKFMGVGPQVADCIMLFSMQKYSAFPVDTWVKKAMMSLYVAPDVSLKKIRDFGREKFGSLSGFAQQYLFYYARENNIQL” belongs “soluble”.

Turning to “MSKFFINPEVLEKYSQKLAEHKSSVNHVRDLVAQADVSDESWGIVGLFVKQSYTEMLGDFKDLLKDMSDGLDSASDKMMSATRAYREIEEENRRILVEITRRINAAKIKNITS”, the “soluble on expression in E. coli” value is reported as “not soluble”.

As for “SDVIKTQQISARTIEKVIVHPLVLLSIVDHYNRVAKDTSKRVVGVLLGSSSRGTVDVTNSYAVPFEEDDKDTSIWFLDHNYHESMFHMFKRINAKEHIVGWYSTGPKLRENDLDVHALFNGYVPNPVLVIIDVQPKELGIPTKAYYAVEEVKENATQKSQQVFVHVPTEIAAHEVEEIGVEHLLRDVKDTTISTLATEVTAKLTALKGLDARLREIRTYLDLVIEGKLPLNHEILYHLQDVFNLLPNLNVNELVKAFAVKTNDMMLVIYLSSLIRSVIALHSLINNKLLNKEHEKAEDSKPVDIPLITES”, the “soluble on expression in E. coli” value is on record as “soluble”. The same measure for “MGSDKIHHHHHHMAERLGILVGGGPAPGINSVISSVTIEAINNGLEVIGIYDGFKHLVEGKTNMVKKLSIEDVSRIHIEGGSILRTSRVNPAKSEETLEKTVQTLKKLGIKYLVTIGGDDTAFSASKVCERSKGEIKVVHVPKTIDNDLPLPENMPTFGFETARHVATELVYNLMQDSRTTNRWYFVAMMGREAGHLALGVGKAASATITIIPEEFKEGVTLEEVCDVLDGAILKRKLMGRDDGVAVIGEGIAEKMDPEELANIPGVIVEKDPHGHLRLAEIPLATILKRAIERRYAERGERIHIVDVTIGYELRSARPIPFDIVYTRTLGYGAVRFLLGDYSDLPGGMVCVVGGRIKILPFDAFMDPKTGRTKVRVVDVRSEDYRVARKYMIRLEKKDLEDPETLEKLAKLAKMEPEEFKKKYWHTTELP”: “not soluble”.
